Data on 2 molecules can be found in publication PMC8184850, “Cryo-EM structure of TFIIH/Rad4–Rad23–Rad33 in damaged DNA opening in nucleotide excision repair” (Nature Communications, 2021).

One series addresses coreTFIIH (7 subunits) (Saccharomyces cerevisiae? (yeast, tfb6 …, UniProt Q00578;P06839;P32776;Q02939;Q04673;Q12004;Q3E7C1 …)). Put plainly: glycerol gradient sedimentation; ATP; EMSA: 20 mM HEPES, 100 mM K-acetate, 2 mM Mg-acetate, 5 mM DTT, room temperature 20 min, 250 nM each component, 0.2x TBE agarose gel at 4 C (pH not stated in this buffer). To be noted: protein: native; tags: TAP tags on Tfb4 and Ssl2; TEV-treated; copies: 1;1;1;1;1;1;1; label: 32P 5' end (T4 PNK) in EMSA; 5' overhang on strand 1: 9 nt from printed strands (text says 10 nt). (In EMSA bound probe runs differently from free probe, usually more slowly.)

The next series addresses T1, 7-subunit coreTFIIH (Saccharomyces cerevisiae | yeast, UniProt Q00578 1-843; P06839 1-778; P32776 1-642; Q02939 1-513; Q04673 1-461; Q12004 …).
T1 construct: Ssl2 (XPB homologue), ATPase/translocase subunit of yeast coreTFIIH; printed numbering runs to residue 843; Rad3 (XPD homologue), helicase subunit of yeast coreTFIIH; Tfb1 (p62 homologue), subunit of yeast coreTFIIH; Tfb2 (p52 homologue), subunit of yeast coreTFIIH; Ssl1 (p44 homologue), subunit of yeast coreTFIIH; Tfb4 (p34 homologue), subunit of yeast coreTFIIH; Tfb5 (p8 homologue), subunit of …
Description: co-sedimentation; factor challenge: Rad2 added (~6-fold molar excess) to TFIIH/Rad4–23–33/AAF-DNA with ATP, 60 min, then 10–40% glycerol gradient (150 mM potassium acetate, 2 mM ATP), 4 °C; SDS-PAGE and densitometry. To be noted: both partners purified.

B1: -24*/+24 AAF (dsDNA)
DNA 1: CCCATTCCAACCATCCCACTACCTGTCCATCTTCACTCAACTATCACCC
DNA 2: GGGTGATAGTTGAGTGAAGATGGACAGGTAGTGGGATGGT
modifications: N-2-acetylaminofluorene adduct on the single G of strand 1 (nt 25, position 0)
Consider B1, for which the binding result in the series with coreTFIIH (7 subunits) was “binds”.

B2: Rad2 (natural protein, yeast, UniProt P07276 1-1031, looked up)
chain: MGVHSFWDIAGPTARPVRLESLEDKRMAVDASIWIYQFLKAVRDQEGNAVKNSHITGFFRRICKLLYFGIRPVFVFDGGVPVLKRETIRQRKERRQGKRESAKSTARKLLALQLQNGSNDNVKNSTPSSGSSVQIFKPQDEWDLPDIPGFKYDKEDARVNSNKTFEKLMNSINGDGLEDIDLDTINPASAEFEELPKATQYLILSSLRLKSRLRMGYSKEQLETIFPNSMDFSRFQIDMVKRRNFFTQKLINTTGFQDGGASKLNEEVINRISGQKSKEYKLTKTNNGWILGLGANDGSDAQKAIVIDDKDAGALVKQLDSNAEDGDVLRWDDLEDNSLKIVRHESSNATTAPQKRSNRSEDEGCDSDECEWEEVELKPKNVKFVEDFSLKAARLPYMGQSLNNAGSKSFLDKRHDQASPSKTTPTMRISRISVEDDDEDYLKQIEEIEMMEAVQLSKMEKKPEADDKSKIAKPVTSKGTEARPPIVQYGLLGAQPDSKQPYHVTNLNSKSESVIKRTSKTVLSEFRPPSQQEDKGAILTEGEQNLNFISHKIPQFDFNNENSLLFQKNTESNVSQEATKEKSPIPEMPSWFSSTASQQLYNPYNTTNFVEDKNVRNEQESGAETTNKGSSYELLTGLNATEILERESEKESSNDENKDDDLEVLSEELFEDVPTKSQISKEAEDNDSRKVESINKEHRKPLIFDYDFSEDEEDNIVENMIKEQEEFDTFKNTTLSTSAERNVAENAFVEDELFEQQMKDKRDSDEVTMDMIKEVQELLSRFGIPYITAPMEAEAQCAELLQLNLVDGIITDDSDVFLFGGTKIYKNMFHEKNYVEFYDAESILKLLGLDRKNMIELAQLLGSDYTNGLKGMGPVSSIEVIAEFGNLKNFKDWYNNGQFDKRKQETENKFEKDLRKKLVNNEIILDDDFPSVMVYDAYMRPEVDHDTTPFVWGVPDLDMLRSFMKTQLGWPHEKSDEILIPLIRDVNKRKKKGKQKRINEFFPREYISGDKKLNTSKRISTATGKLKKRKM
notes: Rad2 (XPG homologue), yeast; plasmid pGVD52-RAD2HisSumo; also called yeast homolog of XPG; source: E. coli Rosetta(DE3), purified (HisTrap, Ulp1 cleavage, HisTrap flow-through, Heparin HP)
Regarding B2, in the series with 7-subunit coreTFIIH, the “percent of TFIIH dissociated from Rad4–Rad23–Rad33 and bound to Rad2 (Rad2 in ~6-fold molar excess, ATP)” value is approximately 50%.
